Reference: the supplement of paper PMC5998384

How the values were obtained:
HeLa Kyoto [1] = experiment: solubility change mitosis vs G1/S (difference of NP-40 vs SDS log2 ratios) (log2 ratio difference); higher = more soluble in mitosis
HeLa Kyoto [2] = experiment: melting temperature (median over replicates), in situ; higher = more thermally stable
HeLa Kyoto [3] = experiment: solubility in G1/S (NP-40 vs SDS abundance) (log2 ratio); higher = more soluble; conditions: cell cycle stage: G1/S
HeLa Kyoto [4] = experiment: thermal stability score vs G1/S (z-score of summed log2 fold changes over temperatures); higher = more thermally stable than in G1/S
[5] = cell cycle stage: early G1 (4.5 h after nocodazole release)
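For melting temperature (median over replicates), in situ in this document: HeLa Kyoto cells synchronized by double thymidine or nocodazole block, proteins quantified by TMT10plex mass spectrometry, three independent biological replicates.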
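For solubility change mitosis vs G1/S (difference of NP-40 vs SDS log2 ratios) in this document: synchronized HeLa Kyoto cells (double thymidine block for G1/S, nocodazole release for mitosis), protein amounts in NP-40 versus SDS lysates quantified by mass spectrometry, three biological replicates.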
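For solubility in G1/S (NP-40 vs SDS abundance) in this document: HeLa Kyoto cells arrested at G1/S by double thymidine block, proteins quantified by TMT10plex mass spectrometry in mild NP-40 versus SDS extracts, three biological replicates.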
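For thermal stability score vs G1/S (z-score of summed log2 fold changes over temperatures) in this document: synchronized HeLa Kyoto cells, proteins quantified by TMT10plex mass spectrometry, three biological replicates, mitosis taken 0.5 h after nocodazole release, G1/S directly after double thymidine block.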

Row | Sequence | solubility change mitosis (log2) (HeLa Kyoto [1]) | melting temperature (HeLa Kyoto [2]; cell cycle stage: G1/S) [°C] | melting temperature (HeLa Kyoto [2]; cell cycle stage: mitosis) [°C] | solubility in G1/S (log2) (HeLa Kyoto [3]) | thermal stability score (HeLa Kyoto [4]; [5]) | thermal stability score (HeLa Kyoto [4]; cell cycle stage: mitosis)
1 | MSGFLEELLGEKLVTGGGEEVDVHSLGARGISLLGLYFGCSLSAPCAQLSASLAAFYGRLRGDAAAGPGPGAGAGAAAEPEPRRRLEIVFVSSDQDQRQWQDFVRDMPWLALPYKEKHRKLKLWNKYRISNIPSLIFLDATTGKVVCRNGLLVIRDDPEGLEFPWGPKPFREVIAGPLLRNNGQSLESSSLEGSHVGVYFSAHWCPPCRSLTRVLVESYRKIKEAGQNFEIIFVSADRSEESFKQYFSEMPWLAVPYTDEARRSRLNRLYGIQGIPTLIMLDPQGEVITRQGRVEVLNDEDCREFPWHPKPVLELSDSNAAQLNEGPCLVLFVDSEDDGESEAAKQLIQPIAEKIIAKYKAKEEEAPLLFFVAGEDDMTDSLRDYTNLPEAAPLLTILDMSARAKYVMDVEEITPAIVEAFVNDFLAEKLKPEPI [NXN] | -0.204 | 51 | 51 | 0.175 | 1.06 | 1.73
2 | MSGGGPSGGGPGGSGRARTSSFAEPGGGGGGGGGGPGGSASGPGGTGGGKASVGAMGGGVGASSSGGGPGGSGGGGSGGPGAGTSFPPPGVKLGRDSGKVTTVVATLGQGPERSQEVAYTDIKVIGNGSFGVVYQARLAETRELVAIKKVLQDKRFKNRELQIMRKLDHCNIVRLRYFFYSSGEKKDELYLNLVLEYVPETVYRVARHFTKAKLTIPILYVKVYMYQLFRSLAYIHSQGVCHRDIKPQNLLVDPDTAVLKLCDFGSAKQLVRGEPNVSYICSRYYRAPELIFGATDYTSSIDVWSAGCVLAELLLGQPIFPGDSGVDQLVEIIKVLGTPTREQIREMNPNYTEFKFPQIKAHPWTKVFKSRTPPEAIALCSSLLEYTPSSRLSPLEACAHSFFDELRCLGTQLPNNRPLPPLFNFSAGELSIQPSLNAILIPPHLRSPAGTTTLTPSSQALTETPTSSDWQSTDATPTLTNSS [GSK3A] | -0.0272 | 52.3 | 52.7 | 0.181 | -1 | -0.972
3 | MSGLRVYSTSVTGSREIKSQQSEVTRILDGKRIQYQLVDISQDNALRDEMRALAGNPKATPPQIVNGDQYCGDYELFVEAVEQNTLQEFLKLA [SH3BGRL3] | -0.132 | 54.2 | 52.6 | -0.259 | -2.26 | -3.11
4 | MSGLVLGQRDEPAGHRLSQEEILGSTRLVSQGLEALRSEHQAVLQSLSQTIECLQQGGHEEGLVHEKARQLRRSMENIELGLSEAQVMLALASHLSTVESEKQKLRAQVRRLCQENQWLRDELAGTQQRLQRSEQAVAQLEEEKKHLEFLGQLRQYDEDGHTSEEKEGDATKDSLDDLFPNEEEEDPSNGLSRGQGATAAQQGGYEIPARLRTLHNLVIQYAAQGRYEVAVPLCKQALEDLERTSGRGHPDVATMLNILALVYRDQNKYKEAAHLLNDALSIRESTLGPDHPAVAATLNNLAVLYGKRGKYKEAEPLCQRALEIREKVLGTNHPDVAKQLNNLALLCQNQGKYEAVERYYQRALAIYEGQLGPDNPNVARTKNNLASCYLKQGKYAEAETLYKEILTRAHVQEFGSVDDDHKPIWMHAEEREEMSKSRHHEGGTPYAEYGGWYKACKVSSPTVNTTLRNLGALYRRQGKLEAAETLEECALRSRRQGTDPISQTKVAELLGESDGRRTSQEGPGDSVKFEGGEDASVAVEWSGDGSGTLQRSGSLGKIRDVLRRSSELLVRKLQGTEPRPSSSNMKRAASLNYLNQPSAAPLQVSRGLSASTMDLSSSS [KLC4] | -0.12 | 49.8 | 51.3 | 0.299 | 0.719 | 1.19
5 | MSGPVPSRARVYTDVNTHRPREYWDYESHVVEWGNQDDYQLVRKLGRGKYSEVFEAINITNNEKVVVKILKPVKKKKIKREIKILENLRGGPNIITLADIVKDPVSRTPALVFEHVNNTDFKQLYQTLTDYDIRFYMYEILKALDYCHSMGIMHRDVKPHNVMIDHEHRKLRLIDWGLAEFYHPGQEYNVRVASRYFKGPELLVDYQMYDYSLDMWSLGCMLASMIFRKEPFFHGHDNYDQLVRIAKVLGTEDLYDYIDKYNIELDPRFNDILGRHSRKRWERFVHSENQHLVSPEALDFLDKLLRYDHQSRLTAREAMEHPYFYTVVKDQARMGSSSMPGGSTPVSSANMMSGISSVPTPSPLGPLAGSPVIAAANPLGMPVPAAAGAQQ [CSNK2A1] | 0.0535 | 51.5 | 50.7 | -0.00675 | 1.11 | 1.31
6 | MSGRGAGGFPLPPLSPGGGAVAAALGAPPPPAGPGMLPGPALRGPGPAGGVGGPGAAAFRPMGPAGPAAQYQRPGMSPGNRMPMAGLQVGPPAGSPFGAAAPLRPGMPPTMMDPFRKRLLVPQAQPPMPAQRRGLKRRKMADKVLPQRIRELVPESQAYMDLLAFERKLDQTIARKRMEIQEAIKKPLTQKRKLRIYISNTFSPSKAEGDSAGTAGTPGGTPAGDKVASWELRVEGKLLDDPSKQKRKFSSFFKSLVIELDKELYGPDNHLVEWHRMPTTQETDGFQVKRPGDLNVKCTLLLMLDHQPPQYKLDPRLARLLGVHTQTRAAIMQALWLYIKHNQLQDGHEREYINCNRYFRQIFSCGRLRFSEIPMKLAGLLQHPDPIVINHVISVDPNDQKKTACYDIDVEVDDPLKAQMSNFLASTTNQQEIASLDVKIHETIESINQLKTQRDFMLSFSTDPQDFIQEWLRSQRRDLKIITDVIGNPEEERRAAFYHQPWAQEAVGRHIFAKVQQRRQELEQVLGIRLT [SMARCD2] | 0.00253 | 48 | 49.2 | 0.445 | 0.352 | 1.15
7 | MSGTKPDILWAPHHVDRFVVCDSELSLYHVESTVNSELKAGSLRLSEDSAATLLSINSDTPYMKCVAWYLNYDPECLLAVGQANGRVVLTSLGQDHNSKFKDLIGKEFVPKHARQCNTLAWNPLDSNWLAAGLDKHRADFSVLIWDICSKYTPDIVPMEKVKLSAGETETTLLVTKPLYELGQNDACLSLCWLPRDQKLLLAGMHRNLAIFDLRNTSQKMFVNTKAVQGVTVDPYFHDRVASFYEGQVAIWDLRKFEKPVLTLTEQPKPLTKVAWCPTRTGLLATLTRDSNIIRLYDMQHTPTPIGDETEPTIIERSVQPCDNYIASFAWHPTSQNRMIVVTPNRTMSDFTVFERISLAWSPITSLMWACGRHLYECTEEENDNSLEKDIATKMRLRALSRYGLDTEQVWRNHILAGNEDPQLKSLWYTLHFMKQYTEDMDQKSPGNKGSLVYAGIKSIVKSSLGMVESSRHNWSGLDKQSDIQNLNEERILALQLCGWIKKGTDVDVGPFLNSLVQEGEWERAAAVALFNLDIRRAIQILNEGASSEKGDLNLNVVAMALSGYTDEKNSLWREMCSTLRLQLNNPYLCVMFAFLTSETGSYDGVLYENKVAVRDRVAFACKFLSDTQLNRYIEKLTNEMKEAGNLEGILLTGLTKDGVDLMESYVDRTGDVQTASYCMLQGSPLDVLKDERVQYWIENYRNLLDAWRFWHKRAEFDIHRSKLDPSSKPLAQVFVSCNFCGKSISYSCSAVPHQGRGFSQYGVSGSPTKSKVTSCPGCRKPLPRCALCLINMGTPVSSCPGGTKSDEKVDLSKDKKLAQFNNWFTWCHNCRHGGHAGHMLSWFRDHAECPVSACTCKCMQLDTTGNLVPAETVQP [MIOS] | 0.0327 | 53.9 | 53 | -0.271 | -0.829 | -1.48
8 | MSGWADERGGEGDGRIYVGNLPTDVREKDLEDLFYKYGRIREIELKNRHGLVPFAFVRFEDPRDAEDAIYGRNGYDYGQCRLRVEFPRTYGGRGGWPRGGRNGPPTRRSDFRVLVSGLPPSGSWQDLKDHMREAGDVCYADVQKDGVGMVEYLRKEDMEYALRKLDDTKFRSHEGETSYIRVYPERSTSYGYSRSRSGSRGRDSPYQSRGSPHYFSPFRPY [SRSF9] | 0.706 | 50 | 50.6 | -0.159 | -3.88 | -3.72
9 | MSGYSSDRDRGRDRGFGAPRFGGSRAGPLSGKKFGNPGEKLVKKKWNLDELPKFEKNFYQEHPDLARRTAQEVETYRRSKEITVRGHNCPKPVLNFYEANFPANVMDVIARQNFTEPTAIQAQGWPVALSGLDMVGVAQTGSGKTLSYLLPAIVHINHQPFLERGDGPICLVLAPTRELAQQVQQVAAEYCRACRLKSTCIYGGAPKGPQIRDLERGVEICIATPGRLIDFLECGKTNLRRTTYLVLDEADRMLDMGFEPQIRKIVDQIRPDRQTLMWSATWPKEVRQLAEDFLKDYIHINIGALELSANHNILQIVDVCHDVEKDEKLIRLMEEIMSEKENKTIVFVETKRRCDELTRKMRRDGWPAMGIHGDKSQQERDWVLNEFKHGKAPILIATDVASRGLDVEDVKFVINYDYPNSSEDYIHRIGRTARSTKTGTAYTFFTPNNIKQVSDLISVLREANQAINPKLLQLVEDRGSGRSRGRGGMKDDRRDRYSAGKRGGFNTFRDRENYDRGYSSLLKRDFGAKTQNGVYSAANYTNGSFGSNFVSAGIQTSFRTGNPTGTYQNGYDSTQQYGSNVPNMHNGMNQQAYAYPATAAAPMIGYPMPTGYSQ [DDX5] | 0.397 | 47.2 | 48.4 | -0.551 | 3.64 | 11.3
10 | MSHPSWLPPKSTGEPLGHVPARMETTHSFGNPSISVSTQQPPKKFAPVVAPKPKYNPYKQPGGEGDFLPPPPPPLDDSSALPSISGNFPPPPPLDEEAFKVQGNPGGKTLEERRSSLDAEIDSLTSILADLECSSPYKPRPPQSSTGSTASPPVSTPVTGHKRMVIPNQPPLTATKKSTLKPQPAPQAGPIPVAPIGTLKPQPQPVPASYTTASTSSRPTFNVQVKSAQPSPHYMAAPSSGQIYGSGPQGYNTQPVPVSGQCPPPSTRGGMDYAYIPPPGLQPEPGYGYAPNQGRYYEGYYAAGPGYGGRNDSDPTYGQQGHPNTWKREPGYTPPGAGNQNPPGMYPVTGPKKTYITDPVSAPCAPPLQPKGGHSGQLGPSSVAPSFRPEDELEHLTKKMLYDMENPPADEYFGRCARCGENVVGEGTGCTAMDQVFHVDCFTCIICNNKLRGQPFYAVEKKAYCEPCYINTLEQCNVCSKPIMERILRATGKAYHPHCFTCVMCHRSLDGIPFTVDAGGLIHCIEDFHKKFAPRCSVCKEPIMPAPGQEETVRIVALDRDFHVHCYRCEDCGGLLSEGDNQGCYPLDGHILCKTCNSARIRVLTAKASTDL | -0.115 | 55.6 | 54.4 | 0.203 | -2.33 | -1.52
11 | MSHTEVKLKIPFGNKLLDAVCLVPNKSLTYGIILTHGASGDMNLPHLMSLASHLASHGFFCLRFTCKGLNIVHRIKAYKSVLNYLKTSGEYKLAGVFLGGRSMGSRAAASVMCHIEPDDGDDFVRGLICISYPLHHPKQQHKLRDEDLFRLKEPVLFVSGSADEMCEKNLLEKVAQKMQAPHKIHWIEKANHSMAVKGRSTNDVFKEINTQILFWIQEITEMDKKCH [TEX30] | -0.146 | 48.7 | 49 | 0.199 | 0.36 | 0.539
12 | MSKGTSSDTSLGRVSRAAFPSPTAAEMAEISRIQYEMEYTEGISQRMRVPEKLKVAPPNADLEQGFQEGVPNASVIMQVPERIVVAGNNEDVSFSRPADLDLIQSTPFKPLALKTPPRVLTLSERPLDFLDLERPPTTPQNEEIRAVGRLKRERSMSENAVRQNGQLVRNDSLWHRSDSAPRNKISRFQAPISAPEYTVTPSPQQARVCPPHMLPEDGANLSSARGILSLIQSSTRRAYQQILDVLDENRRPVLRGGSAAATSNPHHDNVRYGISNIDTTIEGTSDDLTVVDAASLRRQIIKLNRRLQLLEEENKERAKREMVMYSITVAFWLLNSWLWFRR [MFF] | -0.00278 | 51.6 | 52.6 | 0.532 | 0.544 | 1.39
